US20250326848A1

Assays:
[1] = target: human CD47 on primary human platelets (human) (UniProt Q08722); assay: FACS, binding to primary human platelets, donor1
[2] = target: human CD47 on primary human platelets (human) (UniProt Q08722); assay: FACS, binding to primary human platelets, donor 2
[3] = target: human CD47 on primary human red blood cells (human) (UniProt Q08722); assay: FACS, whole cell binding to primary human red blood cells, Donor1
[4] = target: human CD47 on primary human red blood cells (human) (UniProt Q08722); assay: FACS, whole cell binding to primary human red blood cells, Donor2
[5] = target: human CD47 on Jurkat cells (human) (UniProt Q08722); assay: FACS, whole cell binding to Jurkat cells; middle panel 'Anti-CD47 whole cell binding to Jurkat', nM is from the axis 'Conc(nM)'
[6] = target: human CD47 on Jurkat cells (human) (UniProt Q08722); assay: FACS, whole cell binding to Jurkat cells; bottom panel 'Anti-CD47 Binding to CD47+ cells'; fit value printed for the control curve; nM is from the axis
[7] = target: human CD47 on Jurkat cells (human) (UniProt Q08722); assay: FACS, whole cell binding to Jurkat cells; top panel 'HLX305 Binding to CD47+ Jurkat Cells'; fit value given for a flat control curve; nM is from the axis
[8] = target: human CD47 on Jurkat cells (human) (UniProt Q08722); assay: FACS, whole cell binding to Jurkat cells; middle panel 'Anti-CD47 whole cell binding to Jurkat'; fit value given for a flat control curve; nM is from the axis
[9] = target: human CD47 on Jurkat cells (human) (UniProt Q08722); assay: FACS, whole cell binding to Jurkat cells; bottom panel 'Anti-CD47 Binding to CD47+ cells', nM is from the axis 'Conc. (nM)'
[10] = target: human PDL1 expressed on CHO cells (human) (UniProt Q9NZQ7)
human PDL1 expressed on CHO cells (human), sequence (Q9NZQ7 19-290 limits assumed): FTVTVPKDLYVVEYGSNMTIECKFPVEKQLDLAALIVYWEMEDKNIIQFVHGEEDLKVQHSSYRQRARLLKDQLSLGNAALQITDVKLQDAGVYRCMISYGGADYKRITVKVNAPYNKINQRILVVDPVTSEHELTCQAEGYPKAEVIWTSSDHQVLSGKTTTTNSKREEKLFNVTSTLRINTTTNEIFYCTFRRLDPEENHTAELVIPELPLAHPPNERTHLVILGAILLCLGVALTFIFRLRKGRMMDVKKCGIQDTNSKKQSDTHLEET

Substance: IBI322 analog (anti-PDL1/CD47 antibody of US 20220227870 A1, synthesized in-house) (bispecific antibody)
- EC50 (read off the curve) [1]: 1 nM
- EC50 (read off the curve) [2]: 0.8 nM
- EC50 (read off the curve) [3]: 2 nM
- EC50 (read off the curve) [4]: 2 nM
- EC50 [5]: 0.682 nM

Substance: IgG isotype antibody (negative control)
- EC50 [6]: 50 nM
- EC50 [7]: 6.73 nM
- EC50 [8]: 0.00976 nM

Substance: PF-07257876 analog (anti-PDL1/CD47 antibody of US 20210179716 A1, synthesized in-house) (bispecific antibody)
- EC50 [9]: 8.29 nM

Substance: Reference Ab 1 (analog of MPDL3280A, synthesized in-house from WO2016007235A1) (antibody)
- EC50; whole cell PDL1/PD1 blocking assay, NFAT luciferase reporter (RLU) [10]: 0.0532 nM
